Reference: PMC9482650, “Quantitative fragmentomics allow affinity mapping of interactomes” (Nature Communications, 2022)

Legend:
Assay in all cases: holdup assay
Design in all cases: key: below the threshold = too weak to quantify, mostly under pKd 3.1 to 4
APBA2_1, Q99767 = biological target: T1, APBA2_1, Q99767
T1 sequence (Q99767 563-664, limits assumed, looked up): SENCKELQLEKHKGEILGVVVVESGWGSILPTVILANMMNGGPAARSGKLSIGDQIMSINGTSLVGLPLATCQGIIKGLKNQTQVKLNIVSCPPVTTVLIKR

DFNB31_3, Q9P202 = biological target: T2, DFNB31_3, Q9P202
T2 sequence (Q9P202 811-907, limits assumed, looked up): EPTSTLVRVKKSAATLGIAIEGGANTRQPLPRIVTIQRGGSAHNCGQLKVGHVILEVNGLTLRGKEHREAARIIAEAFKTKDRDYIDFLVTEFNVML

DLG1_3, Q12959 = biological target: DLG1_3, Q12959
DLG1_3, Q12959, sequence (Q12959 457-571): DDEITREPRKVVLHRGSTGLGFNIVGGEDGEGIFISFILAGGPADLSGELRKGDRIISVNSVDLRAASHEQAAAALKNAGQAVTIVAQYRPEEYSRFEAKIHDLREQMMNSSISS

DLG2_2, Q15700 = biological target: DLG2_2, Q15700
DLG2_2, Q15700, sequence (Q15700 189-283): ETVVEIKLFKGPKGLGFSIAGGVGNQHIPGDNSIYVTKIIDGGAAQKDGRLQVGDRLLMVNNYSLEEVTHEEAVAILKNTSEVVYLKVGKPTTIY

DLG3_3, Q92796 = biological target: T3, DLG3_3, Q92796
T3 sequence (Q92796 374-475, limits assumed, looked up): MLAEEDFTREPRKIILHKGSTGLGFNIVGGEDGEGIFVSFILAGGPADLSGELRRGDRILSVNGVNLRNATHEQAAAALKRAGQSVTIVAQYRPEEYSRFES

DLG4_1, P78352 = biological target: DLG4_1, P78352
DLG4_1, P78352, sequence (P78352 62-152): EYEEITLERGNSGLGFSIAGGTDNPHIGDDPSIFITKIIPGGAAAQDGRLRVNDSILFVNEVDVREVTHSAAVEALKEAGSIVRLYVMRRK

DLG4_2, P78352 = biological target: DLG4_2, P78352
DLG4_2, P78352, sequence (P78352 155-259): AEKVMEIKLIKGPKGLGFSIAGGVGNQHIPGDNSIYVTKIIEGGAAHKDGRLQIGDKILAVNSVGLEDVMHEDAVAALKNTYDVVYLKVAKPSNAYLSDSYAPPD

DLG4_3, P78352 = biological target: DLG4_3, P78352
DLG4_3, P78352, sequence (P78352 306-403): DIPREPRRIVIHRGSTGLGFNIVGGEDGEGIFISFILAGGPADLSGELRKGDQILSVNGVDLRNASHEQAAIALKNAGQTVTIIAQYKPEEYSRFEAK

FRMPD2_1, Q68DX3 = biological target: FRMPD2_1, Q68DX3
FRMPD2_1, Q68DX3, sequence (Q68DX3 770-861): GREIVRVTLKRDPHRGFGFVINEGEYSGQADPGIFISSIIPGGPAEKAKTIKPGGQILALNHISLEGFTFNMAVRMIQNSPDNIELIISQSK

FRMPD4, Q14CM0 = biological target: FRMPD4, Q14CM0
FRMPD4, Q14CM0, sequence (Q14CM0 67-160): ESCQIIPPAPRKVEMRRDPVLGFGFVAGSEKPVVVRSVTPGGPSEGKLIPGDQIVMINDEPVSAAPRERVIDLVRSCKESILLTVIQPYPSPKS

GOPC, Q9HD26 = biological target: GOPC, Q9HD26
GORASP2, Q9H8Y8 = biological target: GORASP2, Q9H8Y8
GRIP1_7, Q9Y3R0 = biological target: T4, GRIP1_7, Q9Y3R0
T4 sequence (Q9Y3R0 999-1096, limits assumed, looked up): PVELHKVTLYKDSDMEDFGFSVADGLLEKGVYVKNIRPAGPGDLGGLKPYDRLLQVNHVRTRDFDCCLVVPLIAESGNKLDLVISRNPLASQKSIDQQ

GRIP2_3, Q9C0E4 = biological target: GRIP2_3, Q9C0E4
GRIP2_3, Q9C0E4, sequence (Q9C0E4 238-339): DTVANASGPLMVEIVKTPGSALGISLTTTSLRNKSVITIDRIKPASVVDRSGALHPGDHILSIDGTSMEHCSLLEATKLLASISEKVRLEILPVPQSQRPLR

HTRA4, P83105 = biological target: T5, HTRA4, P83105
T5 sequence (P83105 378-476, limits assumed, looked up): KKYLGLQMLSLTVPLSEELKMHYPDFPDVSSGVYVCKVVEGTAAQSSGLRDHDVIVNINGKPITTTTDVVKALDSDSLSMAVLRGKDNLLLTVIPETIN

Inadl_2, Q8NI35 = biological target: Inadl_2, Q8NI35
Inadl_2, Q8NI35, sequence (Q8NI35 238-335): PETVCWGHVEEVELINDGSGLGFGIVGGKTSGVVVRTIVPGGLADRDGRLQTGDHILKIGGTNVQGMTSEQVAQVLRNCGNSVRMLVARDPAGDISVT

Inadl_8, Q8NI35 = biological target: Inadl_8, Q8NI35
Inadl_8, Q8NI35, sequence (Q8NI35 1425-1530): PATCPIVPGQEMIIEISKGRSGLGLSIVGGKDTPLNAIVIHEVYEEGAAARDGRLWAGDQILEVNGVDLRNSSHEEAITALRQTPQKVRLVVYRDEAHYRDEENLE

LIMK2, P53671 = biological target: LIMK2, P53671
LIMK2, P53671, sequence (P53671 143-248): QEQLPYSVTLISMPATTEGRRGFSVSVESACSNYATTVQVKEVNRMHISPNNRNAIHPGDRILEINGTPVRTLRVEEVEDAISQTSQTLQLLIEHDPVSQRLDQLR

LNX1_1, Q8TBB1 = biological target: LNX1_1, Q8TBB1
LNX1_1, Q8TBB1, sequence (Q8TBB1 261-371): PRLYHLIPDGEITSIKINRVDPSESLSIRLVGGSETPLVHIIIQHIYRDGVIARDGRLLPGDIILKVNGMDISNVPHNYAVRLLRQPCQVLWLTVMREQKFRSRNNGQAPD

LNX1_3, Q8TBB1 = biological target: LNX1_3, Q8TBB1
LNX1_3, Q8TBB1, sequence (Q8TBB1 500-596): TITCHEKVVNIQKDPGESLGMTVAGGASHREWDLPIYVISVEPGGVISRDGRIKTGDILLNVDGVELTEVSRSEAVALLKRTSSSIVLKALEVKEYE

MAGI2_3, Q86UL8 = biological target: MAGI2_3, Q86UL8
MAGI2_3, Q86UL8, sequence (Q86UL8 600-682): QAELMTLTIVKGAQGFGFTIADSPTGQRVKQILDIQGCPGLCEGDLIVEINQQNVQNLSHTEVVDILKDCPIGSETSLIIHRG

MAGI2_5, Q86UL8 = biological target: MAGI2_5, Q86UL8
MAGI2_5, Q86UL8, sequence (Q86UL8 915-1017): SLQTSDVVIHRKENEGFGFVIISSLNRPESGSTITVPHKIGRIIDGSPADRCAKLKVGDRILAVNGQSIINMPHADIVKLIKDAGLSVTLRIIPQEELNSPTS

MAST2, Q6P0Q8 = biological target: MAST2, Q6P0Q8
MAST2, Q6P0Q8, sequence (Q6P0Q8 1099-1202): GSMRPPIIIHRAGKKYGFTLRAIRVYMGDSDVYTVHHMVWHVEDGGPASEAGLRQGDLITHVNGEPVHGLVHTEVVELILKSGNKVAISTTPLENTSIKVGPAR

NHERF3_1, Q5T2W1 = biological target: T6, NHERF3_1, Q5T2W1
T6 sequence (Q5T2W1 4-100, limits assumed, looked up): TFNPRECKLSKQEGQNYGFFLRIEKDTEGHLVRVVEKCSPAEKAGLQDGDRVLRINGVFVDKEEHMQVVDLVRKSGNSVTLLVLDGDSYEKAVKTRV

NHERF4_1, Q86UT5-2 = biological target: NHERF4_1, Q86UT5-2
NHERF4_1, Q86UT5-2, sequence (Q86UT5 other isoform, or with tags, fused parts or gaps): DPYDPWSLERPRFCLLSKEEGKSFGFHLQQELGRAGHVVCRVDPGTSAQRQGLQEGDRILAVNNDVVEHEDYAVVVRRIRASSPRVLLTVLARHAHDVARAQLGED

NHERF4_4, Q86UT5 = biological target: NHERF4_4, Q86UT5
NHERF4_4, Q86UT5, sequence (Q86UT5 464-550): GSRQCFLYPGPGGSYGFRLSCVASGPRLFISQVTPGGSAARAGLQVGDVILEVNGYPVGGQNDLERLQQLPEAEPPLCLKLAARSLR

PDZD2_2, O15018 = biological target: T7, PDZD2_2, O15018
T7 sequence (O15018 329-429, limits assumed, looked up): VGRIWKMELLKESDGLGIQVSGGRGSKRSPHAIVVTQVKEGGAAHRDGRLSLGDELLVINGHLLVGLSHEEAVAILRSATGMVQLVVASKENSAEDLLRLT

SCRIB_1, Q14160 = biological target: SCRIB_1, Q14160
SCRIB_1, Q14160, sequence (Q14160 718-814): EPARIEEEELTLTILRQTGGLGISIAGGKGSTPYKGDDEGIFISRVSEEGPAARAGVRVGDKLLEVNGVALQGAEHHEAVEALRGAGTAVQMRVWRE

SCRIB_2, Q14160 = biological target: SCRIB_2, Q14160
SCRIB_2, Q14160, sequence (Q14160 857-960): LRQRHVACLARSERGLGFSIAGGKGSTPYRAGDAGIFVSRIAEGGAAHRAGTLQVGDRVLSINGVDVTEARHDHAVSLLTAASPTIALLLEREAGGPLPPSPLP

SNX27, Q96L92 = biological target: SNX27, Q96L92
TJP3_3, O95049 = biological target: T8, TJP3_3, O95049
T8 sequence (O95049 375-456, limits assumed, looked up): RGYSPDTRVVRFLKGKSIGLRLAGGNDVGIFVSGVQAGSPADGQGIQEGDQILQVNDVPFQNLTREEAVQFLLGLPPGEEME

[1] = plain residues with an end cap or a label only (N-terminal biotin on a linker: ahx)
[2] = plain residues with an end cap or a label only (N-terminal biotin on a linker: ttds)
[3] = plain residues with an end cap or a label only (N-terminal biotin on a linker: ado-ado)

In the case of HSGSYLVTSV [APC, P25054], the pKd (APBA2_1, Q99767; [1]) is reported as “below the threshold”, the pKd (DFNB31_3, Q9P202; [1]) is reported as 3.67 and the pKd (DLG1_3, Q12959; [1]) is reported as 4.88. It also gave a pKd (DLG2_2, Q15700; [1]) of 5.11, a pKd (DLG3_3, Q92796; [1]) of 4.71 and a pKd (DLG4_1, P78352; [1]) of 4.38. The pKd (DLG4_2, P78352; [1]) was 4.98, the pKd (DLG4_3, P78352; [1]) was 4.5 and the pKd (FRMPD2_1, Q68DX3; [1]) was “below the threshold”. For the same binder, the pKd (FRMPD4, Q14CM0; [1]) was “below the threshold”, the pKd (GOPC, Q9HD26; [1]) was 4.3 and the pKd (GORASP2, Q9H8Y8; [1]) was 4.41. For the same binder, the pKd (GRIP1_7, Q9Y3R0; [1]) was “below the threshold”, the pKd (GRIP2_3, Q9C0E4; [1]) was “below the threshold” and the pKd (HTRA4, P83105; [1]) was 4.51. For the same binder, the pKd (Inadl_2, Q8NI35; [1]) was “below the threshold”, the pKd (Inadl_8, Q8NI35; [1]) was 4.84 and the pKd (LIMK2, P53671; [1]) was “below the threshold”. For the same binder, the pKd (LNX1_1, Q8TBB1; [1]) was 4.45, the pKd (LNX1_3, Q8TBB1; [1]) was “below the threshold” and the pKd (MAGI2_3, Q86UL8; [1]) was 4.31. The pKd (MAGI2_5, Q86UL8; [1]) was 4.63, the pKd (MAST2, Q6P0Q8; [1]) was 5.11 and the pKd (NHERF3_1, Q5T2W1; [1]) was “below the threshold”. For the same binder, the pKd (NHERF4_1, Q86UT5-2; [1]) was “below the threshold”, the pKd (NHERF4_4, Q86UT5; [1]) was “below the threshold” and the pKd (PDZD2_2, O15018; [1]) was 4.43. For the same binder, the pKd (SCRIB_1, Q14160; [1]) was 5.04, the pKd (SCRIB_2, Q14160; [1]) was 4.33 and the pKd (SNX27, Q96L92; [1]) was 5.52. The pKd (TJP3_3, O95049; [1]) was “below the threshold”.

TGDTLEKFVEGL [CBP, Q92793] was tested, and the pKd (APBA2_1, Q99767; [2]) was “below the threshold”, the pKd (DFNB31_3, Q9P202; [2]) was “below the threshold” and the pKd (DLG1_3, Q12959; [2]) was “below the threshold”. The pKd (DLG2_2, Q15700; [2]) was “below the threshold”, the pKd (DLG3_3, Q92796; [2]) was “below the threshold” and the pKd (DLG4_1, P78352; [2]) was 3.54. The pKd (DLG4_2, P78352; [2]) was “below the threshold”, the pKd (DLG4_3, P78352; [2]) was “below the threshold” and the pKd (FRMPD2_1, Q68DX3; [2]) was “below the threshold”. The pKd (FRMPD4, Q14CM0; [2]) was “below the threshold”, the pKd (GOPC, Q9HD26; [2]) was “below the threshold” and the pKd (GORASP2, Q9H8Y8; [2]) was “below the threshold”. The pKd (GRIP1_7, Q9Y3R0; [2]) was “below the threshold”, the pKd (GRIP2_3, Q9C0E4; [2]) was “below the threshold” and the pKd (HTRA4, P83105; [2]) was “below the threshold”. For the same binder, the pKd (Inadl_2, Q8NI35; [2]) was “below the threshold”, the pKd (Inadl_8, Q8NI35; [2]) was “below the threshold” and the pKd (LIMK2, P53671; [2]) was “below the threshold”. For the same binder, the pKd (LNX1_1, Q8TBB1; [2]) was “below the threshold”, the pKd (LNX1_3, Q8TBB1; [2]) was “below the threshold” and the pKd (MAGI2_3, Q86UL8; [2]) was “below the threshold”. The pKd (MAGI2_5, Q86UL8; [2]) was “below the threshold”, the pKd (MAST2, Q6P0Q8; [2]) was “below the threshold” and the pKd (NHERF3_1, Q5T2W1; [2]) was “below the threshold”. For the same binder, the pKd (NHERF4_1, Q86UT5-2; [2]) was 3.71, the pKd (NHERF4_4, Q86UT5; [2]) was “below the threshold” and the pKd (PDZD2_2, O15018; [2]) was “below the threshold”. For the same binder, the pKd (SCRIB_1, Q14160; [2]) was “below the threshold”, the pKd (SCRIB_2, Q14160; [2]) was “below the threshold” and the pKd (SNX27, Q96L92; [2]) was “below the threshold”. The pKd (TJP3_3, O95049; [2]) was “below the threshold”.

QKNKDKEYYV [NRXN3_rs746444206, Q9Y4C0] was tested, and the pKd (APBA2_1, Q99767; [3]) was “below the threshold”, the pKd (DFNB31_3, Q9P202; [3]) was 3.82 and the pKd (DLG1_3, Q12959; [3]) was “below the threshold”. For the same binder, the pKd (DLG2_2, Q15700; [3]) was “below the threshold”, the pKd (DLG3_3, Q92796; [3]) was “below the threshold” and the pKd (DLG4_1, P78352; [3]) was “below the threshold”. For the same binder, the pKd (DLG4_2, P78352; [3]) was 3.56, the pKd (DLG4_3, P78352; [3]) was “below the threshold” and the pKd (FRMPD2_1, Q68DX3; [3]) was 3.69. The pKd (FRMPD4, Q14CM0; [3]) was 4.18, the pKd (GOPC, Q9HD26; [3]) was “below the threshold” and the pKd (GORASP2, Q9H8Y8; [3]) was 4.47. For the same binder, the pKd (GRIP1_7, Q9Y3R0; [3]) was 4.55, the pKd (GRIP2_3, Q9C0E4; [3]) was “below the threshold” and the pKd (HTRA4, P83105; [3]) was “below the threshold”. For the same binder, the pKd (Inadl_2, Q8NI35; [3]) was 4.92, the pKd (Inadl_8, Q8NI35; [3]) was “below the threshold” and the pKd (LIMK2, P53671; [3]) was “below the threshold”. The pKd (LNX1_1, Q8TBB1; [3]) was “below the threshold”, the pKd (LNX1_3, Q8TBB1; [3]) was 3.99 and the pKd (MAGI2_3, Q86UL8; [3]) was “below the threshold”. For the same binder, the pKd (MAGI2_5, Q86UL8; [3]) was “below the threshold”, the pKd (MAST2, Q6P0Q8; [3]) was 3.97 and the pKd (NHERF3_1, Q5T2W1; [3]) was 4.43. The pKd (NHERF4_1, Q86UT5-2; [3]) was “below the threshold”, the pKd (NHERF4_4, Q86UT5; [3]) was “below the threshold” and the pKd (PDZD2_2, O15018; [3]) was 4.5. For the same binder, the pKd (SCRIB_1, Q14160; [3]) was “below the threshold”, the pKd (SCRIB_2, Q14160; [3]) was “below the threshold” and the pKd (SNX27, Q96L92; [3]) was “below the threshold”. The pKd (TJP3_3, O95049; [3]) was 3.86.
